{
  "source": "paper PMC13132549",
  "key": {"[1]": {"target": "RXRγ (NR2B3) ligand-binding domain (LBD) (human) (UniProt P48443)", "assay": "ITC; 500 µM Nur77 LBD titrated into 50 µM RXRγ LBD preincubated with vehicle (DMSO) or RXR ligand; 5 °C; 0.25% DMSO; homodimer competition model (SEDPHAT) for the data without ligand"}, "RXRα LBD (Homo sapiens)": {"target": "RXRα LBD (Homo sapiens) (UniProt P19793)", "sequence (P19793 227-458)": "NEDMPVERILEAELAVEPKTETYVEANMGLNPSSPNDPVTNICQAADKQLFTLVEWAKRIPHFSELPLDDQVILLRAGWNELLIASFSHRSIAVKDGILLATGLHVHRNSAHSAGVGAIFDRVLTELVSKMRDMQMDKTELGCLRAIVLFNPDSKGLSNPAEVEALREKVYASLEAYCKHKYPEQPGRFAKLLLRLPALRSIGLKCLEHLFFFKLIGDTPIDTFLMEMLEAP", "assay": "ITC", "conditions": "cited from earlier work"}, "[2]": {"target": "RXRα (NR2B1) ligand-binding domain (LBD)", "assay": "SEC-MALS; 100 µL of each protein at 5 mg/mL (180 µM) injected; 40 mM potassium phosphate pH 7.4, 200 mM KCl; 25 °C"}, "[3]": {"target": "RXRγ (NR2B3) ligand-binding domain (LBD) (human) (UniProt P48443)", "assay": "SEC-MALS; 100 µL of each protein at 5 mg/mL (180 µM) injected; 40 mM potassium phosphate pH 7.4, 200 mM KCl; 25 °C"}},
  "note": "Where “and” joins values, the source holds several entries; their conditions need not be identical. Equal values may be shown once.",
  "data": [
    {"substance": "Nur77 (NR4A1) ligand-binding domain (LBD) (from UniProt P22736 356-598) (domain or fragment)", "values": [
      {"measurement": "Kd", "setting": "[1]", "result": 9, "unit": "µM"}
    ]},
    {"substance": "Nurr1 LBD (from UniProt P43354)", "values": [
      {"measurement": "Kd", "setting": "RXRα LBD (Homo sapiens)", "result": 4, "unit": "µM"}
    ]},
    {"substance": "RXRα (NR2B1) ligand-binding domain (LBD) (domain or fragment)", "values": [
      {"measurement": "stoichiometry N", "setting": "[2]", "result": "2 and 4"}
    ]},
    {"substance": "RXRγ (NR2B3) ligand-binding domain (LBD) (from UniProt P48443 226-463) (domain or fragment)", "values": [
      {"measurement": "stoichiometry N", "setting": "[3]", "result": "2 and 4"}
    ]}
  ]
}
